Experiments:
Assay type in all cases: biochemical, Arabidopsis thaliana
[1] = substrate: OC[C@H]1O[C@H](OC[C@H]2O[C@H](O[C@]3(CO)O[C@H](CO)[C@@H](O)[C@@H]3O)[C@H](O)[C@@H](O)[C@@H]2O)[C@H](O)[C@@H](O)[C@H]1O; assay: HPAEC-PAD, stachyose formation; conditions: stachyose synthase reaction, galactosyl acceptor, co-substrate galactinol (standard assay 100 μM), 25 mM K-phosphate pH 7, 25°C, 60 min
[2] = substrate: OC[C@H]1O[C@H](O[C@@H]2[C@@H](O)[C@H](O)[C@@H](O)[C@H](O)[C@@H]2O)[C@H](O)[C@@H](O)[C@H]1O; assay: HPAEC-PAD, stachyose formation; conditions: stachyose synthase reaction, galactosyl donor, co-substrate raffinose (standard assay 400 μM), range 50 to 1,200 μM, 25 mM K-phosphate pH 7, 25°C, 60 min
[3] = substrate: OC[C@H]1O[C@H](OC[C@H]2O[C@H](OC[C@H]3O[C@H](O[C@]4(CO)O[C@H](CO)[C@@H](O)[C@@H]4O)[C@H](O)[C@@H](O)[C@@H]3O)[C@H](O)[C@@H](O)[C@H]2O)[C@H](O)[C@@H](O)[C@H]1O; assay: HPAEC-PAD, raffinose formation; conditions: galactosylhydrolase reaction, stachyose alone, range 50 to 1,200 μM, 25 mM K-phosphate pH 7, 25°C, 60 min

B1: AtRS4 (AtSTS, AtStaS, At4g01970) (Arabidopsis thaliana) (protein)
chain: MAPLHESLSSINDVIESKPLFVPITKPILQPNSFNLSEGSLCAKDSTPILFDVPQNVTFTPFSSHSISTDAPLPILLRVQANAHKGGFLGFTKESPSDRLTNSLGRFEDREFLSLFRFKMWWSTAWIGKSGSDLQAETQWVMLKIPEIDSYVAIIPTIEGAFRASLTPGEKGNVLICAESGSTKVKESSFKSIAYIHICDNPYNLMKEAFSALRVHMNTFKLLEEKKLPKIVDKFGWCTWDACYLTVDPATIWTGVKEFEDGGVCPKFVIIDDGWQSINFDGDELDKDAENLVLGGEQMTARLTSFKECKKFRNYKGGSFITSDASHFNPLKPKMLIYKATERIQAIILRRKLVKESGEQDLTELDEKIKILSEELNAMFDEVEKEESLGSDDVSGSGMAAFTKDLRLRFKSLDDIYVWHALCGAWNGVRPETMMDLKAKVAPFELSPSLGATMADLAVDKVVEAGIGLVHPSKAHEFYDSMHSYLASVGVTGAKIDVFQTLESLAEEHGGRVELAKAYYDGLTESMIKNFNGTDVIASMQQCNEFFFLATKQISIGRVGDDFWWQDPYGDPQGVYWLQGVHMIHCSYNSIWMGQMIQPDWDMFQSDHVCAEYHAASRAICGGPVYLSDHLGKASHNFDLIKKLAFFDGTIPRCVHYALPTRDSLFKNPLFDKESILKIFNFNKFGGVIGTFNCQGAGWSPEEHRFKGYKECYTTVSGTVHVSDIEWDQNPEAAGSQVTYTGDYLVYKQQSEEILFMNSKSEAMKITLEPSAFDLLSFVPVTELVSSGVRFAPLGLINMFNCVGTVQDMKVTGDNSIRVDVKGEGRFMAYSSSAPVKCYLNDKEAEFKWEEETGKLSFFVPWVEESGGISHLSFTF
Km [1]: 259.2 ± 21.15 µM
Km [2]: 1,170 ± 246.8 μM
Km [3]: 1,059 ± 269.3 μM
